Source: PMC6555819, “Comprehensive study of nuclear receptor DNA binding provides a revised framework for understanding receptor specificity”
Positions count from the first letter of the chain named.

B1: NRC3_wobSeed49_DR2_A5C_o1 (dsDNA)
DNA 1: GCCACACTAGGTCAAGAGGTCAAAGTCCGCTTCCCGGCGATTGACAGCGTAGAATGAAGG
DNA 2: CCTTCATTCTACGCTGTCAATCGCCGGGAAGCGGACTTTGACCTCTTGACCTAGTGTGGC
B2: NRC3_wobSeed41_DR1_T8G_o1 (dsDNA)
DNA 1: GCATATGGAGGTTAAGGGTCATTCAGGTTGGTTCGCGCGATTGACAGCGTAGAATGAAGG
DNA 2: CCTTCATTCTACGCTGTCAATCGCGCGAACCAACCTGAATGACCCTTAACCTCCATATGC
B3: NRC3_wobSeed25_DR1_C26T_o1 (dsDNA)
DNA 1: GCCAAACTAGGTCAAAGGTCAAAGTTGAGCCAACCAGCGATTGACAGCGTAGAATGAAGG
DNA 2: CCTTCATTCTACGCTGTCAATCGCTGGTTGGCTCAACTTTGACCTTTGACCTAGTTTGGC
B4: NRC3_wobSeed25_DR1_A5G_o1 (dsDNA)
DNA 1: B3 DNA 1 with A5G, T26C
DNA 2: B3 DNA 2 with A35G, T56C
B5: NRC3_wobSeed28_DR1_T8A_o1 (dsDNA)
DNA 1: GCCCTACAGGGCCAAAGGTCATTGATTCCAATGCTCGCGATTGACAGCGTAGAATGAAGG
DNA 2: CCTTCATTCTACGCTGTCAATCGCGAGCATTGGAATCAATGACCTTTGGCCCTGTAGGGC
B6: NRC3_wobSeed28_DR1_T22G_o1 (dsDNA)
DNA 1: B5 DNA 1 with A8T, T22G
DNA 2: B5 DNA 2 with A39C, T53A
B7: NRC3_wobSeed74_DR3_C13T_o1 (dsDNA)
DNA 1: GCTCTAGTTGGTTACGGAGGTCACACACGACGGGTAGCGATTGACAGCGTAGAATGAAGG
DNA 2: CCTTCATTCTACGCTGTCAATCGCTACCCGTCGTGTGTGACCTCCGTAACCAACTAGAGC
B8: NRC3_wobSeed17_DR0_A24T_o1 (dsDNA)
DNA 1: GCATATGTAGGTTAGGGTCATTCTGAAAGTAGGGAAGCGATTGACAGCGTAGAATGAAGG
DNA 2: CCTTCATTCTACGCTGTCAATCGCTTCCCTACTTTCAGAATGACCCTAACCTACATATGC
B9: NRC3_wobSeed138_DR5_T5C_o1 (dsDNA)
DNA 1: GCGACACAGGGTCAGCTAGAGGCCAGAGTATGGAAAGCGATTGACAGCGTAGAATGAAGG
DNA 2: CCTTCATTCTACGCTGTCAATCGCTTTCCATACTCTGGCCTCTAGCTGACCCTGTGTCGC
B10: NRC3_wobSeed9_DR0_T17G_o1 (dsDNA)
DNA 1: GCATCTCTAGGTAAAGGTCAGTGAAAGATCGATAGAGCGATTGACAGCGTAGAATGAAGG
DNA 2: CCTTCATTCTACGCTGTCAATCGCTCTATCGATCTTTCACTGACCTTTACCTAGAGATGC
B11: NRC3_wobSeed37_DR1_G24A_o1 (dsDNA)
DNA 1: GCCGTCCAAGGTCAAAGGTCAGTAAAGAGATGACGGGCGATTGACAGCGTAGAATGAAGG
DNA 2: CCTTCATTCTACGCTGTCAATCGCCCGTCATCTCTTTACTGACCTTTGACCTTGGACGGC
B12: NRC3_wobSeed5_DR0_G23T_o1 (dsDNA)
DNA 1: GCCCTTACGGGTCAAGGTTATATCACGGGTGGTACGGCGATTGACAGCGTAGAATGAAGG
DNA 2: CCTTCATTCTACGCTGTCAATCGCCGTACCACCCGTGATATAACCTTGACCCGTAAGGGC
B13: NRC3_wobSeed98_DR4_G11T_o1 (dsDNA)
DNA 1: GCACTAGTTGTTCAGCTGAGGTCACACACAATTCGGGCGATTGACAGCGTAGAATGAAGG
DNA 2: CCTTCATTCTACGCTGTCAATCGCCCGAATTGTGTGTGACCTCAGCTGAACAACTAGTGC
B14: NRC3_wobSeed30_DR1_G7A_o1 (dsDNA)
DNA 1: GCACTAACAGGCCAAGGGTCACTCAAGATTAGTCCGGCGATTGACAGCGTAGAATGAAGG
DNA 2: CCTTCATTCTACGCTGTCAATCGCCGGACTAATCTTGAGTGACCCTTGGCCTGTTAGTGC
B15: NRC3_wobSeed29_DR1_C25T_o1 (dsDNA)
DNA 1: GCGCTTACGGGTCAAAGGTTATAGTATGAATAGAATGCGATTGACAGCGTAGAATGAAGG
DNA 2: CCTTCATTCTACGCTGTCAATCGCATTCTATTCATACTATAACCTTTGACCCGTAAGCGC
B16: NRC3_wobSeed13_DR0_G17C_o1 (dsDNA)
DNA 1: GCCGTCCAAGGTCAAGCTCAGTGAAAGAGACTCGAAGCGATTGACAGCGTAGAATGAAGG
DNA 2: CCTTCATTCTACGCTGTCAATCGCTTCGAGTCTCTTTCACTGAGCTTGACCTTGGACGGC
B17: NRC3_wobSeed13_DR0_C19G_o1 (dsDNA)
DNA 1: B16 DNA 1 with C17G, C19G
DNA 2: B16 DNA 2 with G42C, G44C
B18: NRC3_wobSeed99_DR4_G27A_o1 (dsDNA)
DNA 1: GCTCTCGGAGGACACGAAAGGTCAGAACTCGACATCGCGATTGACAGCGTAGAATGAAGG
DNA 2: CCTTCATTCTACGCTGTCAATCGCGATGTCGAGTTCTGACCTTTCGTGTCCTCCGAGAGC
B19: NRC3_wobSeed117_DR4_G26T_o1 (dsDNA)
DNA 1: GCCGTCAAAGTTCAACTAAGGTAACTTAAAGCACGCGCGATTGACAGCGTAGAATGAAGG
DNA 2: CCTTCATTCTACGCTGTCAATCGCGCGTGCTTTAAGTTACCTTAGTTGAACTTTGACGGC
B20: NRC3_wobSeed109_DR4_G25C_o1 (dsDNA)
DNA 1: GCCGTCCAAGGTCATAGGAGGTCACTGAAGACAGATGCGATTGACAGCGTAGAATGAAGG
DNA 2: CCTTCATTCTACGCTGTCAATCGCATCTGTCTTCAGTGACCTCCTATGACCTTGGACGGC
B21: NRC3_wobSeed109_DR4_G17A_o1 (dsDNA)
DNA 1: B20 DNA 1 with G17A, C25G
DNA 2: B20 DNA 2 with G36C, C44T
B22: NRC3_wobSeed125_DR5_A7G_o1 (dsDNA)
DNA 1: GCCCTTGCGGGTCACTGACAGGTTATAGCATTTGGAGCGATTGACAGCGTAGAATGAAGG
DNA 2: CCTTCATTCTACGCTGTCAATCGCTCCAAATGCTATAACCTGTCAGTGACCCGCAAGGGC
B23: NRC3_wobSeed46_DR1_C7A_o1 (dsDNA)
DNA 1: GCTTACAAAGGTGAAAGGTCGTTGATGCACGCCTTGGCGATTGACAGCGTAGAATGAAGG
DNA 2: CCTTCATTCTACGCTGTCAATCGCCAAGGCGTGCATCAACGACCTTTCACCTTTGTAAGC
B24: NRC3_wobSeed97_DR4_A6T_o1 (dsDNA)
DNA 1: GCCAATCTAGGTCACGAAAGGTCAAAGTCGAATGACGCGATTGACAGCGTAGAATGAAGG
DNA 2: CCTTCATTCTACGCTGTCAATCGCGTCATTCGACTTTGACCTTTCGTGACCTAGATTGGC

What follows are binders tested against RARa:RXRa (Homo sapiens, UniProt P10276;P19793 full;full) (assay: no ligand; PBM; 270 nM : 90 nM RXRa; PBS pH 7.4, 2% milk, 0.02% Triton X-100, 1 mM DTT, BSA, 0.4 mg/ml salmon testes DNA). Details: tags: His kept;His cleaved; copies: 1;1; label: surface-attached array probe.
Chain of RARa:RXRa (P10276 whole entry, chain 1 of 2): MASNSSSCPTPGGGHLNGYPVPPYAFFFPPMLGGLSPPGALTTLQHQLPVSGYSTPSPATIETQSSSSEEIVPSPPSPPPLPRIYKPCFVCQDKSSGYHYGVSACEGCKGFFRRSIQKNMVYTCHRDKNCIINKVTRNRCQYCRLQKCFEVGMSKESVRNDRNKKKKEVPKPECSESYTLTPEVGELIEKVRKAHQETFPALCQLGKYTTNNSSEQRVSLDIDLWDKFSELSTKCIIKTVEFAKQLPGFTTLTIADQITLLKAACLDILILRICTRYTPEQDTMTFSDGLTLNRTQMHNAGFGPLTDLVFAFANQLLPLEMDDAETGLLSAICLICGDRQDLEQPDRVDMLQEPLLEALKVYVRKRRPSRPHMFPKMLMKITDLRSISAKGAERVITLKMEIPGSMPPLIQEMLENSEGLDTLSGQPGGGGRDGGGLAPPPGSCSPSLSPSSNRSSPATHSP
Chain of RARa:RXRa (P19793 whole entry, chain 2 of 2): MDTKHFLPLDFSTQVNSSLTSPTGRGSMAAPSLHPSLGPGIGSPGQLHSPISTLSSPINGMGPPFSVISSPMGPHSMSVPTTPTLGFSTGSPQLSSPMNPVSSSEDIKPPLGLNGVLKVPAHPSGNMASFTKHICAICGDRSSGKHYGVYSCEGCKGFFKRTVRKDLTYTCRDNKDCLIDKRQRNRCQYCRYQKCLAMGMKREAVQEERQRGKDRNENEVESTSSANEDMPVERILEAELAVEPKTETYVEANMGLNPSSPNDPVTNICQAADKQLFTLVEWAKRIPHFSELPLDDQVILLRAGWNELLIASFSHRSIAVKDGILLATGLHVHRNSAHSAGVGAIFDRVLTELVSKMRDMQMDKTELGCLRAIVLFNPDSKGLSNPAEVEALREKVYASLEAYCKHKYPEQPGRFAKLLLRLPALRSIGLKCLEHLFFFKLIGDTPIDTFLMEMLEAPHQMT
Summary of the method: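 Probes were double-stranded and carried 34-nt variable regions with direct-repeat seeds, single-nucleotide variants, half-site ablations and random human genomic background sequences, printed on custom Agilent 4×180K protein-binding microarrays. Arrays were incubated 1 h with ligand-free nuclear receptor dimers in PBS pH 7.4, 2% milk, 0.02% Triton X-100, 1 mM DTT, 0.2 mg/mL BSA and 0.4 mg/ml salmon testes DNA. Antibodies against each partner (one per run) detected binding, and scanned fluorescence was regression-normalized. Binding z-scores use the random background probes as reference.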
For B1, the binding signal was 8.44 PBM z-score against 500 random probes.
For B2, the binding signal was 7.62 PBM z-score against 500 random probes.
B3 was tested, and the binding signal was 9.38 PBM z-score against 500 random probes.
B4 was tested, and the binding signal was 9.27 PBM z-score against 500 random probes.
In the case of B5, the binding signal is reported as 7.45 PBM z-score against 500 random probes.
B6 was tested, and the binding signal was 4.44 PBM z-score against 500 random probes.
B7 was tested, and the binding signal was 4.41 PBM z-score against 500 random probes.
With B8 the binding signal was 4.56 PBM z-score against 500 random probes.
B9 was tested, and the binding signal was 4.25 PBM z-score against 500 random probes.
B10 was tested, and the binding signal was 4.31 PBM z-score against 500 random probes.
B11 was tested, and the binding signal was 9.33 PBM z-score against 500 random probes.
With B12 the binding signal was 4.39 PBM z-score against 500 random probes.
For B13, the binding signal was 4.63 PBM z-score against 500 random probes.
With B14 the binding signal was 4.53 PBM z-score against 500 random probes.
B15 was tested, and the binding signal was 8.73 PBM z-score against 500 random probes.
In the case of B16, the binding signal is reported as 4.6 PBM z-score against 500 random probes.
In the case of B17, the binding signal is reported as 4.49 PBM z-score against 500 random probes.
With B18 the binding signal was 4.35 PBM z-score against 500 random probes.
For B19, the binding signal was 4.28 PBM z-score against 500 random probes.
For B20, the binding signal was 7.71 PBM z-score against 500 random probes.
For B21, the binding signal was 7.18 PBM z-score against 500 random probes.
In the case of B22, the binding signal is reported as 4.21 PBM z-score against 500 random probes.
For B23, the binding signal was 7.64 PBM z-score against 500 random probes.
In the case of B24, the binding signal is reported as 8.17 PBM z-score against 500 random probes.
